In patent publication US20180030144A1 (INNATE PHARMA, published 2018):

Experiments:
[1] = target: T1, human CD73 expressed at the cell surface (human, UniProt P21589 27-549); test: cell-based or functional assay
T1 sequence: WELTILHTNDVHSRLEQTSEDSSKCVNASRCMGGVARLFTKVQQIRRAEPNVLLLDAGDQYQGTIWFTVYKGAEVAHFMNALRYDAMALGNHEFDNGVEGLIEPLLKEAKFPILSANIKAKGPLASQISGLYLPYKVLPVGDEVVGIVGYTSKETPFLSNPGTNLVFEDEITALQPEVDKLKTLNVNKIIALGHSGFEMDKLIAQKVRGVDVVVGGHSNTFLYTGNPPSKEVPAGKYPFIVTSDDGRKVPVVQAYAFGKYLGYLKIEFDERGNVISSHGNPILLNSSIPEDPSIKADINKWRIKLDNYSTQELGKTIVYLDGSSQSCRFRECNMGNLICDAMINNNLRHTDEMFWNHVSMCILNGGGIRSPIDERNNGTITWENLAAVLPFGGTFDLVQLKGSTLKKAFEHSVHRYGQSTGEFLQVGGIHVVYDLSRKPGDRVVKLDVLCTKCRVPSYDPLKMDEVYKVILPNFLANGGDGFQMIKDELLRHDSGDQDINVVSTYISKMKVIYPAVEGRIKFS

[2] = target: T2, human CD73 mutant 16 (human, UniProt P21589 27-549); test: flow cytometry, HEK293T transfectants
T2 construct: Transfected in HEK293T cells
T2 chain: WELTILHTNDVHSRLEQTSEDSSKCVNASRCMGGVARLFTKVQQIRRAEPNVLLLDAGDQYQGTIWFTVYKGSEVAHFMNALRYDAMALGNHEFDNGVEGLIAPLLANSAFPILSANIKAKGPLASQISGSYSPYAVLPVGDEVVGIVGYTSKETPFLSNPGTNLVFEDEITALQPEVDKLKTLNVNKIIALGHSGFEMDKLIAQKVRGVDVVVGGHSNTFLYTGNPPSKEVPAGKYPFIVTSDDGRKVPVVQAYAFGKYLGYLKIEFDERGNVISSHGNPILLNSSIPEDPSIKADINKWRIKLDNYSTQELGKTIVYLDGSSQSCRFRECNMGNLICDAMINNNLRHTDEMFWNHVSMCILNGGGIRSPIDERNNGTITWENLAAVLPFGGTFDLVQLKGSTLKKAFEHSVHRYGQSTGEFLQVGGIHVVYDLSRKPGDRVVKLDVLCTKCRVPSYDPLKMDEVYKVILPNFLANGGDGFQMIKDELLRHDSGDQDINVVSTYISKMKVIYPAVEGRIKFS

[3] = target: T3, human CD73 mutant 17 (human, UniProt P21589 27-549); test: flow cytometry, HEK293T transfectants
T3 construct: Transfected in HEK293T cells
T3 chain: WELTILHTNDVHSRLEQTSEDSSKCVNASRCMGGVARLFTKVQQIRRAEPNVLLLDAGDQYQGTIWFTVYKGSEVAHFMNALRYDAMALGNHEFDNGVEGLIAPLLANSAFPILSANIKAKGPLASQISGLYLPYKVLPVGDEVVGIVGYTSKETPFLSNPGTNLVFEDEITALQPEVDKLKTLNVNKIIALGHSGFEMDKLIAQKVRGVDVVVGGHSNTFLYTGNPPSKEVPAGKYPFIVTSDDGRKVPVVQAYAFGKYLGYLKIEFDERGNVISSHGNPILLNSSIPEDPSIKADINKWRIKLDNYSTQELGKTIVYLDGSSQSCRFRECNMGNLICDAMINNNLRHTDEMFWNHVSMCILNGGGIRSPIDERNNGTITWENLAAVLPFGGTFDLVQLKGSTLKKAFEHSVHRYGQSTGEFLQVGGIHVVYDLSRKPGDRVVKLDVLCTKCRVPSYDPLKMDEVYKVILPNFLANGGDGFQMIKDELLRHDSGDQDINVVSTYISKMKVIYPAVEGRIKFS

[4] = target: T4, recombinant human CD73-His extracellular domain protein (soluble dimer) (human, UniProt P21589 27-547); test: ELISA, plate-coated recombinant human CD73
T4 construct: Purified as a dimer; also called huCD73; soluble recombinant human CD73
T4 sequence: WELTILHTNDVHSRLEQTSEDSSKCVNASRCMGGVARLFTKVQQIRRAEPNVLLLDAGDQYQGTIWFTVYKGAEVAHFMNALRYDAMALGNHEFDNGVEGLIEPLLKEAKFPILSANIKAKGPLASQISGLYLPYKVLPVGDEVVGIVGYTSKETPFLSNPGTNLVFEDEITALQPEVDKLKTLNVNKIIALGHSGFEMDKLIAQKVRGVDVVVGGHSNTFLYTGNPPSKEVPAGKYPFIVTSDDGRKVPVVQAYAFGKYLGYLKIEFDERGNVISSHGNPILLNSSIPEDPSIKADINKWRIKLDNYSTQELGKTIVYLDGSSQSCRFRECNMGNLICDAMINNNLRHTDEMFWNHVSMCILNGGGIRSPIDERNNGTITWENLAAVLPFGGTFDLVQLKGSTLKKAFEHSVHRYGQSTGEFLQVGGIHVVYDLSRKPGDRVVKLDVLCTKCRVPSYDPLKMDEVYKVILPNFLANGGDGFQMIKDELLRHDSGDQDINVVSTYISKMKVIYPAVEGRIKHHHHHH
Protocol: 5 μg/ml of recombinant human CD73 protein (IPH, isoform E6) was coated on MaxiSorp ELISA plates (Nunc) in PBS, overnight at 4° C. Plates were washed 5 times in washing buffer (PBS, 0.05% Tween20) and unspecific sites were saturated by adding 200 μl/w TBS starting block buffer (Thermo Ficher). Dose-range of anti-CD73 antibodies were incubated for 2 h at 37° C. Plates were washed 5 times in washing buffer and HRP-coupled goat anti-human or goat anti-mouse IgG Fc fragment secondary antibody (Bethyl, 1/50000) was added for 1 hr at RT to detect bound anti-CD73 antibodies. […] The enzymatic reaction was stopped by adding HCl 1M and O.D. was measured at 450 nm. Optical density vs. anti-CD73 Ab concentration was plotted on graphs and EC50 is calculated using GraphPad Prism software.

B1: antibody 11E1 (antibody, human IgG1, V domains shown)
VH: EIQLQQSGPELVKPGASVKVSCKASGYAFTSYNMYWVKQSHGKSLEWIGYIDPYNGGTSYNQKFKGKATLTVDKSSSTAYMHLNSLTSEDSAVYYCARGYGNYKAWFAYWGQGTLVTVSA
VL: DAVMTQTPKFLLVSAGDRVTITCKASQSVTNDVAWYQQKPGQSPKLLIYYASNRYTGVPDRFTGSGYGTDFTFTISTVQAEDLAVYFCQQDYSSLTFGAGTKLELK
notes: Produced as chimeric human IgG1 with heavy chain N297Q (Kabat EU numbering); also called 1E11
EC50 for neutralization of 5'-ectonucleotidase activity, mean over MDA-MB-231, H292 and A375 cells [1]: 0.1 µg/mL | EC70 for neutralization of 5'-ectonucleotidase activity, mean over MDA-MB-231, H292 and A375 cells [1]: 0.15 µg/mL | EC100 for neutralization of 5'-ectonucleotidase activity, mean over MDA-MB-231, H292 and A375 cells [1]: 0.52 µg/mL | binding result [2]: no binding | binding result [3]: no binding | EC50 [4]: 0.012 µg/mL

B2: antibody 6E1 (antibody, human IgG1, V domains shown)
VH: EFQLQQSGPELVKPGASVKVSCKASGYAFTSYNMYWVKQSHGKRLEWIGYIDPYNGGSSYNQKFKGKATLTVDKSSSTAYMHLNNLTSEDSAVYYCARGYNNYKAWFAYWGQGTLVTVSA
VL: SIVMTQTPKFLLVSAGDRVTITCKASQSVTNDVAWYQQKPGQSPKLLIYYASNRYTGVPDRFTGSGYGTDFTFTISTMQAEDLAVYFCQQDYSSLTFGAGTKLELK
notes: Produced as chimeric human IgG1 with heavy chain N297Q (Kabat EU numbering)
EC50 for neutralization of 5'-ectonucleotidase activity, mean over MDA-MB-231, H292 and A375 cells [1]: 0.13 µg/mL | EC70 for neutralization of 5'-ectonucleotidase activity, mean over MDA-MB-231, H292 and A375 cells [1]: 0.19 µg/mL | EC100 for neutralization of 5'-ectonucleotidase activity, mean over MDA-MB-231, H292 and A375 cells [1]: 0.68 µg/mL | binding result [2]: no binding | binding result [3]: no binding | EC50 [4]: 0.014 µg/mL

B3: antibody 3C12 (antibody, human IgG1, V domains shown)
VH: QIQLQQSGPELVKPGASVKVSCKASGYAFASYNMNWVKQSHGKSLDWIGYIDPYNGGSSYNLTFKGKATLTVDKSSTTAYMHLNSLTSEDSAVYYCARGYGNYKAWFAYWGQGTLVTVSA
VL: DVVMTQTPKFLLVSAGDRVTITCKASQSVSNDVAWYQQKPGQSPKLLIYYASTRYTGVPDRFTGSGYGTDFTFTISTVQAEDLAVYFCQQDYSSLTFGAGTKLELKR
notes: Produced as chimeric human IgG1 with heavy chain N297Q (Kabat EU numbering); RTVAAP)
EC50 for neutralization of 5'-ectonucleotidase activity, mean over MDA-MB-231, H292 and A375 cells [1]: 0.14 µg/mL | EC70 for neutralization of 5'-ectonucleotidase activity, mean over MDA-MB-231, H292 and A375 cells [1]: 0.18 µg/mL | EC100 for neutralization of 5'-ectonucleotidase activity, mean over MDA-MB-231, H292 and A375 cells [1]: 0.3 µg/mL | binding result [2]: no binding | binding result [3]: no binding | EC50 [4]: 0.014 µg/mL
